“And” between values parts separate entries of the source, which are not always exact repeats. Identical values can stand only once. Like-named read-outs stand apart in the source and are kept apart here.
Legend:
[1] = target: T1, RcsB A93D (Salmonella enterica serovar Typhimurium, UniProt P58663 1-210, A93D); assay: EMSA
T1 sequence: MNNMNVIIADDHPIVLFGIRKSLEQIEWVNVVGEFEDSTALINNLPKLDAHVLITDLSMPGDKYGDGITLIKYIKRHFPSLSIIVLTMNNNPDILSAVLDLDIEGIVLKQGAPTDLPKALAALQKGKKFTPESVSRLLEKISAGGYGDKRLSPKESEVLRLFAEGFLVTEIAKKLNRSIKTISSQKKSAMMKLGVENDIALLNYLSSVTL

[2] = target: T2, RcsB K180A (Salmonella enterica serovar Typhimurium, UniProt P58663 1-210, K180A); assay: EMSA
T2 sequence: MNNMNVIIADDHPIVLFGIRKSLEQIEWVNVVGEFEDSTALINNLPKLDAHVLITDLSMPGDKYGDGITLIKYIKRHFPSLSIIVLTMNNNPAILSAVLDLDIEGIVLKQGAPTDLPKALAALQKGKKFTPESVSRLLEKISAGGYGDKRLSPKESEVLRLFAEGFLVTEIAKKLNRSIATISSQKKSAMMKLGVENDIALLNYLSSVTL

[3] = target: T3, RcsB Q185A (Salmonella enterica serovar Typhimurium, UniProt P58663 1-210, Q185A); assay: EMSA
T3 sequence: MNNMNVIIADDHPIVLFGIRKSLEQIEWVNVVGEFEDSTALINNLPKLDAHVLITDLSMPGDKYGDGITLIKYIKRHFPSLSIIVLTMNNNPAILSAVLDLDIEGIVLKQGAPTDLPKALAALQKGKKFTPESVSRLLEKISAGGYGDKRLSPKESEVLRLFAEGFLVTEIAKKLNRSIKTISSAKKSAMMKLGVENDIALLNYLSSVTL

[4] = target: T4, RcsB WT (Salmonella enterica serovar Typhimurium, UniProt P58663 1-210); assay: EMSA
T4 sequence: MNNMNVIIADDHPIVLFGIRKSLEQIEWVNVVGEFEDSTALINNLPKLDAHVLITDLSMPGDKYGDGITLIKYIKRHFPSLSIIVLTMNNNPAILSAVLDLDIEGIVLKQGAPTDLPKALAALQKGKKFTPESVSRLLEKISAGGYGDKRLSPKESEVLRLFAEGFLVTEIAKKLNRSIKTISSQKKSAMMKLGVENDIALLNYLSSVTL

[5] = target: T5, RcsB H12A (Salmonella enterica serovar Typhimurium, UniProt P58663 1-210, H12A); assay: EMSA
T5 sequence: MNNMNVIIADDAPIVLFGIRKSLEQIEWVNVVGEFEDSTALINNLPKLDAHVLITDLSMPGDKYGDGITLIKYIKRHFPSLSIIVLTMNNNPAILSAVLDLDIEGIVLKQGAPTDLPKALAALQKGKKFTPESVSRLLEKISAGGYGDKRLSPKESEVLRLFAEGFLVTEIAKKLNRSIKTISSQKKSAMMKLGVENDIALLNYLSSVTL

[6] = target: T6, RcsB L202D (Salmonella enterica serovar Typhimurium, UniProt P58663 1-210, L202D); assay: EMSA
T6 sequence: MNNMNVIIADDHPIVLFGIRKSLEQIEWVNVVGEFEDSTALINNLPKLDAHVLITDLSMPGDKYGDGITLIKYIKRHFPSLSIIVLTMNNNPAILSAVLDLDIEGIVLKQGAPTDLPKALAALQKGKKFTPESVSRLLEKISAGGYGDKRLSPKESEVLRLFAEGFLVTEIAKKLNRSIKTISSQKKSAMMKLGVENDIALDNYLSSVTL

[7] = target: T7, RcsB L202F (Salmonella enterica serovar Typhimurium, UniProt P58663 1-210, L202F); assay: EMSA
T7 sequence: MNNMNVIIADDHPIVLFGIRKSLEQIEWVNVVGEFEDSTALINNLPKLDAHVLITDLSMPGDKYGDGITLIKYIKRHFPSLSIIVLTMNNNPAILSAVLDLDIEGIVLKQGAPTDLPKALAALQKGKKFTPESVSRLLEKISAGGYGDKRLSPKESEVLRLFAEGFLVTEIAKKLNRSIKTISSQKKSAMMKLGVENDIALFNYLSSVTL

[8] = target: T8, RcsB D56A (Salmonella enterica serovar Typhimurium, UniProt P58663 1-210, D56A); assay: EMSA
T8 sequence: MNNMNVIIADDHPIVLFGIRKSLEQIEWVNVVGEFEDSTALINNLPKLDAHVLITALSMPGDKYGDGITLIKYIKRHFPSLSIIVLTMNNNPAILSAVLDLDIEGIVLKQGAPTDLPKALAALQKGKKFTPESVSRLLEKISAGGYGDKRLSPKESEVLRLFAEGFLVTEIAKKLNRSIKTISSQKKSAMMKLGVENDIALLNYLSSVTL

[9] = target: T4, RcsB WT; assay: EMSA; remark: listed apart in the source
[10] = target: T9, RcsB M88A (Salmonella enterica serovar Typhimurium, UniProt P58663 1-210, M88A); assay: EMSA
T9 sequence: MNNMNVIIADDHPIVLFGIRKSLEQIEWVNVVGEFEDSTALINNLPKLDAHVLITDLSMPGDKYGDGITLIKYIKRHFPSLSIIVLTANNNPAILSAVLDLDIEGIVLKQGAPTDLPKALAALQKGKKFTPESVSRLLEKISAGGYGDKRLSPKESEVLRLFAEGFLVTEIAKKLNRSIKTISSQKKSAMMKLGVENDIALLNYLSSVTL

[11] = target: the molecule itself; assay: crystal structure
[12] = target: the molecule itself; assay: SEC
[13] = target: the molecule itself; assay: crystal structure; remark: listed apart in the source

B1: rcsA promoter (dsDNA)
DNA 1: CCTGTTTTACTAAGGTTTATCCGAAAATA
DNA 2: TATTTTCGGATAAACCTTAGTAAAACAGG
B1: no binding [1]; no binding [2]; no binding [3]. B1: binds [4].

B2: P1flhDC (dsDNA)
DNA 1: CGTCGAATTAGGAAAAATCTTAGGCA
DNA 2: TGCCTAAGATTTTTCCTAATTCGACG
B2: no binding [1]; no binding [5]; no binding [6]. B2: binds [7]; no binding [8]; no binding [2]. B2: no binding [3]; binds [9]; binds [10].

B3: RcsB from Salmonella enterica serovar Typhimurium (residues 1-210), wild type (natural protein, UniProt P58663 1-210, looked up)
chain: MNNMNVIIADDHPIVLFGIRKSLEQIEWVNVVGEFEDSTALINNLPKLDAHVLITDLSMPGDKYGDGITLIKYIKRHFPSLSIIVLTMNNNPAILSAVLDLDIEGIVLKQGAPTDLPKALAALQKGKKFTPESVSRLLEKISAGGYGDKRLSPKESEVLRLFAEGFLVTEIAKKLNRSIKTISSQKKSAMMKLGVENDIALLNYLSSVTL
For B3, the “stoichiometry N” value [11] was 2.

B4: RcsB E170A variant, incubated with acetylphosphate (natural protein, Salmonella enterica serovar Typhimurium, UniProt P58663 1-210, looked up)
chain: MNNMNVIIADDHPIVLFGIRKSLEQIEWVNVVGEFEDSTALINNLPKLDAHVLITDLSMPGDKYGDGITLIKYIKRHFPSLSIIVLTMNNNPAILSAVLDLDIEGIVLKQGAPTDLPKALAALQKGKKFTPESVSRLLEKISAGGYGDKRLSPKESEVLRLFAEGFLVTAIAKKLNRSIKTISSQKKSAMMKLGVENDIALLNYLSSVTL
modifications: phosphorylated (D56) by incubation with acetylphosphate; reduced level against the WT
B4: binds [12].

B5: RcsB S207C variant (natural protein, Salmonella enterica serovar Typhimurium, UniProt P58663 1-210, looked up)
chain: MNNMNVIIADDHPIVLFGIRKSLEQIEWVNVVGEFEDSTALINNLPKLDAHVLITDLSMPGDKYGDGITLIKYIKRHFPSLSIIVLTMNNNPAILSAVLDLDIEGIVLKQGAPTDLPKALAALQKGKKFTPESVSRLLEKISAGGYGDKRLSPKESEVLRLFAEGFLVTEIAKKLNRSIKTISSQKKSAMMKLGVENDIALLNYLSCVTL
In the case of B5, the “stoichiometry N” value [13] is reported as 2 and 6.

B6: RcsB M88A variant, incubated with acetylphosphate (natural protein, Salmonella enterica serovar Typhimurium, UniProt P58663 1-210, looked up)
chain: MNNMNVIIADDHPIVLFGIRKSLEQIEWVNVVGEFEDSTALINNLPKLDAHVLITDLSMPGDKYGDGITLIKYIKRHFPSLSIIVLTANNNPAILSAVLDLDIEGIVLKQGAPTDLPKALAALQKGKKFTPESVSRLLEKISAGGYGDKRLSPKESEVLRLFAEGFLVTEIAKKLNRSIKTISSQKKSAMMKLGVENDIALLNYLSSVTL
modifications: phosphorylated (D56) by incubation with acetylphosphate; higher level than the WT
B6: binds [12].

B7: Phosphorylated RcsB from S. Typhimurium (wild type incubated with acetylphosphate) (natural protein, Salmonella enterica serovar Typhimurium, UniProt P58663 1-210, looked up)
chain: MNNMNVIIADDHPIVLFGIRKSLEQIEWVNVVGEFEDSTALINNLPKLDAHVLITDLSMPGDKYGDGITLIKYIKRHFPSLSIIVLTMNNNPAILSAVLDLDIEGIVLKQGAPTDLPKALAALQKGKKFTPESVSRLLEKISAGGYGDKRLSPKESEVLRLFAEGFLVTEIAKKLNRSIKTISSQKKSAMMKLGVENDIALLNYLSSVTL
modifications: phosphorylated at D56 by incubation with acetylphosphate (AcP)
For B7, the “stoichiometry N” value [12] was 2.

From paper PMC5758874 (Nucleic Acids Research, 2017)
